Laboratory results taken from US12102672B2, “Immunogenic sequences from a phage tail length tape measure protein, bacteria expressing the same and their use in treating a cancer” (INSTITUT GUSTAVE ROUSSY, priority 2017, dated 2024).

Columns and labels:
[1] = molecular target: HLA-A*0201 with TMP peptide […] on peptide-pulsed autologous cells (human; Enterococcus hirae 13144 (prophage 2, TMP))
[2] = molecular target: HLA-A*0201 with TMP peptide … on peptide-pulsed autologous cells (human; Enterococcus hirae 13144 (prophage 2, TMP))
[3] = system: prophage 1 and 2 of EH13144; settings: mitomycin C 1 μg/ml; 37° C. and 42° C.; without capside disruption
From the text: Protocol for phage excision by mitomycin C.
PCR was run to detect specific sequences of the prophage 1 or 2.

CD8+ T cells from PBMC of six HLA-A2+ healthy volunteers (cells without a defined receptor)
IFNγ ELISPOT after in vitro stimulation [1]: 50 % of HV | IFNγ ELISPOT after in vitro stimulation [2]: 50 % of HV

CO[C@@]12[C@H](COC(N)=O)C3=C(C(=O)C(C)=C(N)C3=O)N1C[C@@H]1N[C@@H]12 [mitomycin C]
prophage 1 and 2 excision from EH13144 [3]: prophage 1 and 2 excision
